Assay results reported in publication PMC12820725, “Ribosomal protein control of hematopoietic stem cell transformation through regulation of metabolism”.
Like-named read-outs stand apart in the source and are kept apart here.

Assays:
GST-Rpl22 [1] = target: GST-Rpl22 (UniProt P67984 1-128); experiment: EMSA; 5 mM MgCl2, E. coli tRNA competitor; 37.5 mM HEPES pH 7.9, 75 mM NaCl, 5 mM MgCl2, 0.1 mg/ml BSA, 8% glycerol, 1 ug E. coli tRNA, 5 nM 32P-RNA; temperature not stated
GST-Rpl22 [2] = target: GST-Rpl22 (UniProt P67984 1-128); experiment: as above; conditions: protein: recombinant; tags: GST; label: 5'-32P

Row | Binder | binding result (GST-Rpl22 [1]) | binding result (GST-Rpl22 [2])
1 | AUCCUGCUGGAUGGAAUUCCAGCUAAUGUGAU (structured_RNA) [Alox12 BS1] | no binding | –
2 | ACCAGAGUGAUGAUAUUGUGAGGGGAGACCCA (ssRNA) [Alox12 NBS] | no binding | –
3 | GGUCCGUCCCGGGUACAAGUCCCGGGUGGUGA (structured_RNA) [EBER1] | – | binds
4 | GCUCAGUGCGGUGCUACCGACCCGAGGUCAAG (ssRNA) [EBER2] | – | no binding
5 | AUUUCCUCACCAUGUGUGUUUUCACAUGCACU (structured_RNA) [Alox12 BS2] | binds | –
